The values below are quoted from earlier work in publication PMC7585440.

Series [1] addresses LRP6 E1E2 (Homo sapiens) (UniProt O75581). The experiment in a line: biolayer interferometry. (Biolayer interferometry detects binding as a change in optical thickness at a sensor tip.)
Series [2] has as its target LRP6 E1 (Homo sapiens) (UniProt O75581). As to the kind of experiment: ITC. (In ITC the heat of successive injections is recorded.)

LRP6 E1E2 (Homo sapiens), sequence (O75581 20-630): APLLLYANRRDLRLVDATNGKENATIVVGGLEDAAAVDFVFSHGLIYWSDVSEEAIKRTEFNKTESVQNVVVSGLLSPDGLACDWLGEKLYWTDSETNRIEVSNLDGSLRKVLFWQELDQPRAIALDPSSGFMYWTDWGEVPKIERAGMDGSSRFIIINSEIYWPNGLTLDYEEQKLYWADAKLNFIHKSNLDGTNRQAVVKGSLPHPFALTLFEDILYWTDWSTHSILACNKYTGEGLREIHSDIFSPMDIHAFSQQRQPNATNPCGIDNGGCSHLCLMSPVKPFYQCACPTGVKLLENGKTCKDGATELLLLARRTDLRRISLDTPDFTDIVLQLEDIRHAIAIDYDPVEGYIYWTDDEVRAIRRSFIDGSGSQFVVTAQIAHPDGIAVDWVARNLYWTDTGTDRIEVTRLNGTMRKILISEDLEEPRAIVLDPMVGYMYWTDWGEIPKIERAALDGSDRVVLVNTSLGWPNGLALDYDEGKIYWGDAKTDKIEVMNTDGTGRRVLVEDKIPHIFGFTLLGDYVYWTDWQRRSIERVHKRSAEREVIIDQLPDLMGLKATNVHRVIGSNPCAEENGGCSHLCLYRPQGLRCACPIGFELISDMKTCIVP
SOST loop 2 peptide loop 2, sequence (Q9BQB4 110-130): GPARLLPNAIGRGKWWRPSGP
SOST, sequence (Q9BQB4 24-213): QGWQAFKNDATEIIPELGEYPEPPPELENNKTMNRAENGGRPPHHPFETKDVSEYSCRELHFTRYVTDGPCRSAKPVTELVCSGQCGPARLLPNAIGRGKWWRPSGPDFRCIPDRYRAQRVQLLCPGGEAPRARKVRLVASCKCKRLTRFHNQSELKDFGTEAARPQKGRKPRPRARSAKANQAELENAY
LRP6 E1 (Homo sapiens), sequence (O75581 20-326): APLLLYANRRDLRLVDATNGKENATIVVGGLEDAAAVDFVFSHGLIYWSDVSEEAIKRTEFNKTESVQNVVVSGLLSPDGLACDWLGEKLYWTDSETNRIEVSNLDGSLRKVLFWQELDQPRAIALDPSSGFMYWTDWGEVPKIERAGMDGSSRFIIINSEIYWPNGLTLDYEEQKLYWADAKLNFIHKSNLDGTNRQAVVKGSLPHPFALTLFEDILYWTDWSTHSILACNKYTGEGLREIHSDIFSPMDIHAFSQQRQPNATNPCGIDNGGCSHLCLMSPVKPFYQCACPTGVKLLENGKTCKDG

As for SOST (from UniProt Q9BQB4), the Kd – broadly, a measure of binding affinity in units of concentration – in series [1] is 0.0068 µM.
Consider “SOST loop 2 peptide loop 2 (from UniProt Q9BQB4)”, for which, in series [2], the dissociation constant (Kd) is 9 µM.
